This is an account of results in paper PMC6687723.

The target of assay [1] is Hsp70SBD (HSPA1A), truncated form, residues 394-509 (human) (UniProt P0DMV8). The experiment in a line: fluorescence polarisation; competition: 2 µM Hsp70SBD and 25 nM FAM-LVEALY with varying concentrations of AR protein, 30 min at room temperature; 100 mM Tris, 20 mM KCl, 6 mM MgCl2 pH 7.4; no nucleotides. In general terms: In fluorescence polarisation assays a small probe gives low polarisation when free and higher when bound to something large.

Assay [2] addresses human Hsp40 (DNAJA2), full length (human) (UniProt O60884). Kind of assay: ITC; AR protein (100-200 µM) in the syringe titrated into 10-20 µM chaperone in the cell; 25 °C; 25 mM HEPES, 5 mM MgCl2, 10 mM KCl pH 7.5; one or two-site binding model; no nucleotides. (Isothermal titration calorimetry measures the heat released or taken up as one component is titrated into another.)
Assay [3] addresses Hsp70 (SBD), residues 394-540 (human) (UniProt P0DMV8). The assay is described as above.
In assay [4] the target is androgen receptor N-terminal domain construct NTD_(1-155) (human) (UniProt P10275). The experiment in a line: NMR titration; 1H,15N-HSQC of 33 µM 15N-labelled NTD construct with 16.5 or 33 µM (0.5 or 1 molar equivalents) unlabelled Hsp70 or Hsp40; 5 °C; 20 mM phosphate pH 7.4, 1 mM TCEP, 10% D2O; no added nucleotides.

The term IC50 denotes the midpoint of a concentration-inhibition curve. In general, Kd refers to a measure of binding affinity in units of concentration. A higher Kd goes with weaker binding. As usually defined, the stoichiometry N is the number of molecules, sites or subunits per partner or assembly. As to “androgen receptor N-terminal domain construct NTD_(1-155) (from UniProt P10275 1-155) (domain or fragment)”, the IC50 in assay [1] came out at 1.7 µM. Besides, the Kd in assay [2] turned out to be 3.3 µM; in assay [3], 5 µM. The substance further had a stoichiometry N in assay [2] of 0.49.
Take “human Hsp40 (DNAJA2), full length (from UniProt O60884 1-412) (natural protein)”: the I/I0 of NTD (1-155) signals at 1 molar equivalent in assay [4] came to 0.3.
Still for that read-out and setting: under “human Hsp70 (HSPA1A), full length (from UniProt P0DMV8 1-641) (natural protein)” stands 0.3.
